Reference: PMC8752827 (Nature Communications, 2022)
Each block holds one binder with its values, some of them ahead of it. Where no end group is shown, it is not given here.

How the values were obtained:
Settings in all cases: both partners purified
human IL-6 = human IL-6 (Homo sapiens, UniProt P05231); experiment: pull-down; antibody fragment captured by RGS-tag on AC-resin co- or post-translationally, washed, treated with neutral buffer or 2 M GdnHCl/100 mM DTT then 1 M GdnHCl/10 mM GSH (or fully refolded from 6 M GdnHCl); incubated with 50 uL of 10 uM antigen for 3 h at RT; washed; eluted by boiling or by PreScission cleavage; SDS-PAGE
Sequence of human IL-6 (P05231 30-212): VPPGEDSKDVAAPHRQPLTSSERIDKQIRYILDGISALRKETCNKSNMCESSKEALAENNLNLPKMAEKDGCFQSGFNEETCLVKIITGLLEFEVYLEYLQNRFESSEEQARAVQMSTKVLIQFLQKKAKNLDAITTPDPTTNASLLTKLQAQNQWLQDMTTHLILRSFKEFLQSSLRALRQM

Human serum albumin = molecular target: T1, Human serum albumin (Homo sapiens, UniProt P02768); experiment: as above
T1 construct: also called HSA

Trypsin = Trypsin (UniProt P00760 18-246); experiment: enzyme inhibition assay (trypsin-inhibitory assay); 100 pM trypsin pre-incubated with peptide (twofold dilution series from 4 nM to 3.9 pM) for 3 h at room temperature in 0.1 M NaCl, 10 mM CaCl2, 0.005% Triton X-100, 0.1 M Tris-HCl pH 8.0; residual activity on Boc-Q-A-R-AMC (10 uM); Ki from IC50 by a tight-binding equation, Km 12 uM
Sequence of Trypsin (P00760 24-246): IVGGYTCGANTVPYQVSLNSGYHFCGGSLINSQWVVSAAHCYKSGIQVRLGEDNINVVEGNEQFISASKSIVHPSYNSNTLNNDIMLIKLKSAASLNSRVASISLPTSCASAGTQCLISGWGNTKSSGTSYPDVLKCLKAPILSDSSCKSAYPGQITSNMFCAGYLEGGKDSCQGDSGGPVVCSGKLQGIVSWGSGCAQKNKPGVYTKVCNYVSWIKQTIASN

- binding result (human IL-6): binds
B1: anti-IL-6 scFv (scFv, V domains shown)
VH: QVQLVESGGGLVQPGGSLRLSCAASGFNFNDYFMNWVRQAPGKGLEWVAQMRNKNYQYGTYYAESLEGRFTISRDDSKNSLYLQMNSLKTEDTAVYYCARESYYGFTSYWGQGTLVTVSG
VL: GIQMTQSPSSLSASVGDRVTITCQASQDIGISLSWYQQKPGKAPKLLIYNANNLADGVPSRFSGSGSGTDFTLTISSLQPEDFATYYCLQHNSAPYTFGQGTKLETG

- binding result (Human serum albumin): binds
B2: anti-HSA scFv (scFv, V domains shown)
VH: EVQLLESGGGLVQPGGSLRLSCAVSGIDLSNYAINWVRQAPGKGLEWIGIIWASGTTFYATWAKGRFTISRDNSKNTVYLQMNSLRAEDTAVYYCARTVPGYSTAPYFDLWGQGTLVTVSS
VL: DIQMTQSPSSVSASVGDRVTITCQSSPSVWSNFLSWYQQKPGKAPKLLIYEASKLTSGVPSRFSGSGSGTDFTLTISSLQPEDFATYYCGGGYSSISDTTFGGGTKVEIK

- binding result (Human serum albumin): binds
B3: anti-HSA Fab (Fab, V domains shown)
VH: B2 VH
VL: B2 VL

- fold Ki against prmMCoTI (Trypsin): ~4 fold
B4: wild-type MCoTI-II fused to RGS (peptide)
peptide: SGSDGGVCPKILKKCRRDSDCPGACICRGNGYCGGAG
modifications: disulfide (positions not given here); also: three disulfides, pairing not given here, fused to RGS
notes: also called wtMCoTI-RGS; wtMCoTI

- binding result (human IL-6): binds
B5: anti-IL-6 Fab (Fab, V domains shown)
VH: EVQLQESGPGLVKPSQTLSLTCTVSGGSITTRYYAWSWIRQPPGKGLEWMGVIDYDGDTYYSPSLKSRTSISWDTSKNQFSLQLSSVTPEDTAVYYCARDPDVVTGFHYDYWGQGTQVTVSS
VL: QAVLTQPPLVSGTPGQTVTISCAGANNDIGTYAYVSWYQQLPGTAPKLLIYKVTTRASGIPSRFSGSKSGNTASLTISGLQSEDEADYYCASYRNFNNAVFGRGTHLTVL
